Test in all cases: cell-based or functional assay
Assay [1] addresses Env of HIV-1 strain PVO.4 (HIV-1).
Assay [2] concerns the target Env of HIV-1 strain 3016.v5.c45 (HIV-1).
In assay [3] the target is Env of HIV-1 strain Du172.17 (HIV-1).
Assay [4] addresses Env of HIV-1 strain R1166.c1 (HIV-1).
In assay [5] the target is Env of HIV-1 strain REJO4541.67 (HIV-1).
The target of assay [6] is Env of HIV-1 strain 231965.c1 (HIV-1).
The target of assay [7] is Env of HIV-1 strain ZM53M.PB12 (HIV-1).
The target of assay [8] is Env of HIV-1 strain X1254_c3 (HIV-1).
For assay [9], the target named is Env of HIV-1 strain 251-18 (HIV-1).
Assay [10] addresses Env of HIV-1 strain 250-4 (HIV-1).
In assay [11] the target is Env of HIV-1 strain 3365.v2.c20 (HIV-1).
The target in assay [12] is Env of HIV-1 strain YU2.DG (HIV-1).
Assay [13] has as its target Env of HIV-1 strain H086.8 (HIV-1).
In assay [14] the target is Env of HIV-1 strain ZM109F.PB4 (HIV-1).
For assay [15], the target named is Env of HIV-1 strain 3415.v1.c1 (HIV-1).
The next assay concerns the target Env of MuLV.

For ten molecules, neutralization IC50 results are on record in patent US20180171001A1.

Where a chain is given by its changes, count along the chain named.

B1: γ4κ3 (antibody, V domains shown)
VH: QIHLVQSGTEVKKPGSSVTVSCKAYGVNTFGLYAVNWVRQAPGQSLEYIGQIWRWKSSASHHFRGRVIISAVDLTGSSPPISPLEIKNLTSDDTAVYFCTTTSTSDRWSGLHHDGVMAFSSWGQGTLISVSA
VL: DIQMTQSPSTLSASIGDTVRISCRASQSITGNWLAWYHQRPGKAPRLLIYRGSRLLGGVPSRFSGSAAGTDFTLTIANLQAEDFGTFYCQQYDTYPGTFGQGTKVEVKR
Regarding B1, the neutralization IC50 in [1], in assay [2], in [3], in assay [4], in assay [5] and in assay [6] was above 15 µg/mL each time. In addition, the neutralization IC50 in assay [7] was above 15 µg/mL; in [8] it was 18 µg/mL; in assay [9] it was above 15 µg/mL; in assay [10], above 15 µg/mL; in assay [11], above 15 µg/mL; in assay [12] it was above 15 µg/mL. Further, the neutralization IC50 in [13], in assay [14] and in [15] was above 15 µg/mL each time.

B2: γ8κ3 (antibody, V domains shown)
VH: B1 VH with E10G, S45G, I68L, S82T, P83S, L89V, S105Y, R107K, H112Y
VL: B1 VL
On to B2, for which the neutralization IC50 in [1] is above 15 µg/mL; in assay [2], 2.38 µg/mL; in assay [3], above 15 µg/mL; in [4], 7.6 µg/mL; with Env of MuLV, above 18 µg/mL; in [5] it was above 15 µg/mL. For the same molecule, the neutralization IC50 is 3.48 µg/mL in assay [6]; above 15 µg/mL in assay [7]; 4.01 µg/mL in [8]; above 15 µg/mL in assay [9]; above 15 µg/mL in assay [10]; above 15 µg/mL in assay [11]. In addition, the neutralization IC50 in assay [12] was 5.41 µg/mL; in [13], above 15 µg/mL; in assay [14], above 15 µg/mL; in assay [15], above 15 µg/mL.

B3: γ52κ3 (antibody, V domains shown)
VH: B1 VH with I68L, P83S, S105Y
VL: B1 VL
In the case of B3, the neutralization IC50 in assay [1] is 1.92 µg/mL; in assay [2] it was 3.05 µg/mL; in [3], above 15 µg/mL; in assay [4], 23.4 µg/mL; with Env of MuLV, above 30 µg/mL; in assay [5] it was above 15 µg/mL. Moreover, the neutralization IC50 in [6] was 6.59 µg/mL; in assay [7], above 15 µg/mL; in [8], above 15 µg/mL; in [9] it was 14.5 µg/mL; in assay [10], above 15 µg/mL; in [11] it was above 15 µg/mL. For the same molecule, the neutralization IC50 was 5.75 µg/mL in assay [12], above 15 µg/mL in assay [13], above 15 µg/mL in assay [14] and above 15 µg/mL in assay [15].

B4: 8ANC3040 (antibody, V domains shown)
VH: B1 VH with I68L, P83S, S105Y, R107Q
VL: B1 VL with L34V, H38Q, S53A, R54A, A77G
Consider B4, for which the neutralization IC50 was 0.284 µg/mL in assay [1]; 0.427 µg/mL in assay [2]; 2.37 µg/mL in assay [4]; above 30 µg/mL with Env of MuLV; 0.198 µg/mL in assay [5]; 1.17 µg/mL in [6]. Further, the neutralization IC50 in assay [7] is 14.9 µg/mL; in assay [8], 2.91 µg/mL; in assay [9] it was 0.571 µg/mL; in [11] it was above 25 µg/mL; in assay [12], 0.617 µg/mL; in assay [15] it was 3.06 µg/mL.

B5: γ20κ3 (antibody, V domains shown)
VH: B1 VH with T19A, H62D, P83S, T101A, S105P, R107Y
VL: B1 VL
Take B5: the neutralization IC50 in assay [1] is above 15 µg/mL; in assay [2], above 15 µg/mL; in assay [3] it was above 15 µg/mL; in [4], above 15 µg/mL; in the assay with Env of MuLV, above 21 µg/mL; in [5] it was above 15 µg/mL. Also, the neutralization IC50 in [6] was above 15 µg/mL; in assay [7], above 15 µg/mL; in assay [8], 14.7 µg/mL; in assay [9], above 15 µg/mL; in assay [10], above 15 µg/mL; in [11] it was above 15 µg/mL. Also, the neutralization IC50 in assay [12], in [13], in assay [14] and in assay [15] was above 15 µg/mL each time.

B6: γ8κ11 (antibody, V domains shown)
VH: B1 VH with E10G, S45G, I68L, S82T, P83S, L89V, S105Y, R107K, H112Y
VL: B1 VL with I15V, D17G, N32G
With B6, the neutralization IC50 was 8.16 µg/mL in [1]; 2.46 µg/mL in [2]; above 15 µg/mL in assay [3]; 3.88 µg/mL in [4]; above 15 µg/mL in assay [5]; 2.49 µg/mL in assay [6]. The neutralization IC50 in assay [7] was above 15 µg/mL; in assay [8], 4.14 µg/mL; in assay [9], above 15 µg/mL; in assay [10], above 15 µg/mL; in assay [11], above 15 µg/mL; in assay [12], 9.35 µg/mL. The neutralization IC50 in assay [13], in assay [14] and in [15] was above 15 µg/mL in each case.

B7: γ46κ5 (antibody, V domains shown)
VH: B1 VH with S45G, I68L, P83S, L89V, S105Y, R107K, M117V
VL: B1 VL with I15T, L34V, H38Q, S53A, R54A, S64R, A77G
As for B7, the neutralization IC50 in assay [1] was 0.129 µg/mL; in assay [2], 0.111 µg/mL; in assay [3] it was above 15 µg/mL; in [4], 0.922 µg/mL; in assay [5], 0.196 µg/mL; in [6], 0.525 µg/mL. In addition, the neutralization IC50 in assay [7] is 12.4 µg/mL; in [8] it was 1.79 µg/mL; in assay [9], 0.609 µg/mL; in assay [10], above 15 µg/mL; in [11], above 15 µg/mL; in assay [12] it was 0.553 µg/mL. In addition, the values for the neutralization IC50 in [13], in [14] and in assay [15] were 1.75 µg/mL, above 15 µg/mL and above 15 µg/mL, respectively.

B8: γ15κ18 (antibody, V domains shown)
VH: B1 VH with P83S, T102A, S105Y, R107K
VL: B1 VL with I15V, N32G, T70A
For the molecule B8, the neutralization IC50 in assay [1] was 1.59 µg/mL; in assay [2], 0.664 µg/mL; in assay [3], above 15 µg/mL; in assay [4], 1.99 µg/mL; in [5] it was above 15 µg/mL; in [6], 1.49 µg/mL. For the same molecule, the neutralization IC50 is above 15 µg/mL in [7]; 2.85 µg/mL in assay [8]; above 15 µg/mL in assay [9]; above 15 µg/mL in [10]; above 15 µg/mL in assay [11]; 1.17 µg/mL in assay [12]. The neutralization IC50 in assay [13], in [14] and in assay [15] was above 15 µg/mL throughout.

B9: γ15κ3 (antibody, V domains shown)
VH: B1 VH with P83S, T102A, S105Y, R107K
VL: B1 VL
As for B9, the neutralization IC50 in assay [1] was 5.32 µg/mL; in [2], 1.26 µg/mL; in [3], above 15 µg/mL; in assay [4], 3.94 µg/mL; with Env of MuLV it was above 30 µg/mL; in assay [5], above 15 µg/mL. In addition, the neutralization IC50 was 1.61 µg/mL in assay [6]; above 15 µg/mL in [7]; 3.49 µg/mL in assay [8]; above 15 µg/mL in assay [9]; above 15 µg/mL in [10]; above 15 µg/mL in assay [11]. In addition, the neutralization IC50 in assay [12] was 1.07 µg/mL; in [13] it was above 15 µg/mL; in [14], above 15 µg/mL; in assay [15], above 15 µg/mL.

B10: γ22κ3 (antibody, V domains shown)
VH: B1 VH with I68L, S77P, P83S, S105Y, R107K
VL: B1 VL
Consider B10, for which the neutralization IC50 in assay [1], in assay [2], in assay [3], in assay [4], in [5] and in [6] was above 15 µg/mL throughout. Further, the neutralization IC50 in assay [7], in assay [8], in assay [9], in [10], in assay [11] and in [12] was above 15 µg/mL in each case. The neutralization IC50 in assay [13], in assay [14] and in assay [15] was above 15 µg/mL in each case.
